PMC8448314

Biological target: Fc-tagged SARS-CoV-2 RBD (residues 319-535, C-terminal human IgG4 Fc region) (SARS-CoV-2 | human) (UniProt P0DTC2)
Test: SEC; Superose 6 Increase 10/300 GL gel filtration of each purified protein alone

Question: For “Fc-tagged SARS-CoV-2 RBD (residues 319-535, C-terminal human IgG4 Fc region) (from UniProt P0DTC2 319-535) (Fc fusion)”, which stoichiometry N is on record?
Answer: Its stoichiometry N is 2.
